Measurements from patent US20150164984A1, “Colicins for Treating Bacterial Infections” (The University Court of the University of Glasgow, priority 2012, published 2015).
Changes are numbered by the printed parent chain. Numbers in names are those of the source.

Experiments:
[1] = tested on: AIEC in the biofilm state; experiment: MBEC biofilm assay, viability by XTT; type: cell-based, E. coli; settings: for ability to kill AIEC in the biofilm state: 6 additional strains of AIEC; for antimicrobial activity against biofilm-associated cells compared with ampicillin, metronidazole and rifaximin: all isolates; for relative effectiveness among colicins in killing AIEC in the biofilm state: multiple AIEC strains
From the text: The clinically relevant state for AI E. coli in the infected gut mucosa is the biofilm state in which bacteria show enhanced tolerance to antibiotics. We therefore tested the ability of colicins to kill AI E. coli in the biofilm state using the MBEC Physiology and Genetics Assay (Innovotech). In this assay, biofilm growth occurs on 96 identical pegs protruding from the lid of a 96-well microtitre plate.
To determine the cytotoxicity of colicins against LF82 biofilms we compared the % cell survival of AIEC in biofilms treated with colicins with those exposed to antibiotics which are frequently prescribed in the treatment of Crohn's disease (FIG. 1). Biofilms were formed on the MBEC™ 96-peg plate platform for 24 h, then challenged for 1 h with 150 μl dilutions of the antibiotics (ampicillin, ciprofloxacin, metronidazole and rifaximin) and colicins (E1, E3, E9 and D) in sterile PBS in the concentration range 0.002 μg/ml-200 μg/ml. All dilutions of antimicrobials were done in triplicate and control antimicrobial-free biofilms were treated with 150 μl of sterile PBS. Following treatment, the viability of biofilm-associated cells was tested using the metabolic dye XTT. The XTT salt changes colour when it is metabolised by viable cells. This colour change can be compared to untreated antimicrobial-free biofilms, giving an indication of the percentage survival in biofilms exposed to the antimicrobials.
We further tested the ability of colicins E1 (a pore-forming colicin) E3 (a rRNase), E9 (a DNase), D (a tRNase) and IA (a pore-forming colicin) to kill 6 additional strains of AIEC in the biofilm state.

[2] = tested on: adherent invasive E. coli isolates (AIEC) 95, 419, 615 and LF82; experiment: spot test of purified colicin on a growing lawn of cells (zones of inhibition); type: cell-based; settings: isolates 95, 419, 615 and LF82; 2 μl drop of 0.2 mg/ml colicin, 18 h
Method: Briefly, 25 μl of a log phase bacterial culture (OD600=0.6) was added to 5 ml of molten 0.8% agarose and poured on top of an LB agar plate. A 2 μl drop of each colicin (0.2 mg/ml) was spotted onto the overlay plate. The plates were incubated for 18 h and examined for zones of inhibition. All E. coli isolates tested were sensitive to the cytotoxic activity of the four colicin proteins, as indicated by the presence of clear zones representing cell killing (not shown).

[3] = tested on: intracellular E. coli LF82 in infected murine macrophages (J774); experiment: macrophage model of AIEC infection, colony counts of intracellular bacteria; type: cell-based; settings: for killing of intracellular LF82 in infected macrophages: infected macrophages treated for 4 and 24 hours, FIG. 4
Method: AI E. coli are able to infect and replicate within macrophages and epithelial cells. To determine if colicin E1 is able to kill intracellular bacteria raw murine macrophages (J774) were infected with AI E. coli LF82 and treated with colicin E1 (FIG. 3).
Raw murine macrophages (J774) were grown in 24-well tissue culture plates in RPMI tissue culture media (containing 3% fetal calf serum, 1% […], 1% pen/strep) at 37° C. in 5% CO2 until the cells reached 70-80% confluency. The macrophages were then infected with E. coli LF82 at a multiplicity of infection of 50 (MOI 50). After 2 h of infection, the macrophages were exposed to the antibiotic gentamicin (100 μg/ml) to kill any bacteria outside the macrophage which hadn't successfully invaded the cell. The LF82-infected macrophages were then treated with colicin E1 (10, 0.1, 0.001 μg/ml) for 3 h at 37° C. The macrophages were then scraped from the surface of the plate, lysed with Triton X and the intra-cellular bacteria were plated on LB agar containing 50 μg/ml ampicillin for selection of LF82. The plates were incubated overnight at 37° C. and colony counts were performed.
Experiments were performed as described for colicin E1 except that infected macrophages were treated with colicin for 4 and 24 hours.

[4] = target: outer membrane receptor BtuB (Escherichia coli, UniProt P06129); settings: read-out: affinity for outer membrane receptor BtuB; Housden et al., 2005; cited from earlier work
Chain of outer membrane receptor BtuB (P06129 21-614): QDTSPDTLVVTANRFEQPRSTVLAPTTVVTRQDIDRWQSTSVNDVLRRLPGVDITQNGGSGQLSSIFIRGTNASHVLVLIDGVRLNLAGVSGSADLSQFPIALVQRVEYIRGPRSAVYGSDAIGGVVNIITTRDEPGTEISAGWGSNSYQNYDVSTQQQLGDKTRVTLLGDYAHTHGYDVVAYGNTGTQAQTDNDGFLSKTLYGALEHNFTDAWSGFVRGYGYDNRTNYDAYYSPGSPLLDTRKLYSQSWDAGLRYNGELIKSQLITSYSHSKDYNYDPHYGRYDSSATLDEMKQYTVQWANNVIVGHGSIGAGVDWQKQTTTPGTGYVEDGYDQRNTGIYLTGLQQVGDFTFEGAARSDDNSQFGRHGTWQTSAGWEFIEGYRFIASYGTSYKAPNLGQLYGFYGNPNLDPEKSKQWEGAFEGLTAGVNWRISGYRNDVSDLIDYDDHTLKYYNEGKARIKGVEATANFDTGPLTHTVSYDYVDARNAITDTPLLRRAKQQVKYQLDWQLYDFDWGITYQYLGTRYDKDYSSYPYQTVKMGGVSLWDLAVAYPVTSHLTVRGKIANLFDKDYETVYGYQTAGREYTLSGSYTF

B1: Colicin Ia (protein, listed as Escherichia coli)
chain: MSDPVRITNPGAESLGYDSDGHEIMAVDIYVNPPRVDVFHGTPPAWSSFGNKTIWGGNEWVDDSPTRSDIEKRDKEITAYKNTLSAQQKENENKRTEAGKRLSAAIAAREKDENTLKTLRAGNADAADITRQEFRLLQAELREYGFRTEIAGYDALRLHTESRMLFADADSLRISPREARSLIEQAEKRQKDAQNADKKAADMLAEYERRKGILDTRLSELEKNGGAALAVLDAQQARLLGQQTRNDRAISEARNKLSSVTESLNTARNALTRAEQQLTQQKNTPDGKTIVSPEKFPGRSSTNHSIVVSGDPRFAGTIKITTSAVIDNRANLNYLLSHSGLDYKRNILNDRNPVVTEDVEGDKKIYNAEVAEWDKLRQRLLDARNKITSAESAVNSARNNLSARTNEQKHANDALNALLKEKENIRNQLSGINQKIAEEKRKQDELKATKDAINFTTEFLKSVSEKYGAKAEQLAREMAGQAKGKKIRNVEEALKTYEKYRADINKKINAKDRAAIAAALESVKLSDISSNLNRFSRGLGYAGKFTSLADWITEFGKAVRTENWRPLFVKTETIIAGNAATALVALVFSILTGSALGIIGYGLLMAVTGALIDESLVEKANKFWGI
- ability to kill AIEC in the biofilm state [1]: good killing activity

B2: Colicin E9 (protein, listed as Escherichia coli)
chain: MSGGDGRGHNTGAHSTSGNINGGPTGIGVSGGASDGSGWSSENNPWGGGSGSGIHWGGGSGRGNGGGNGNSGGGSGTGGNLSAVAAPVAFGFPALSTPGAGGLAVSISASELSAAIAGIIAKLKKVNLKFTPFGVVLSSLIPSEIAKDDPNMMSKIVTSLPADDITESPVSSLPLDKATVNVNVRVVDDVKDERQNISVVSGVPMSVPVVDAKPTERPGVFTASIPGAPVLNISVNDSTPAVQTLSPGVTNNTDKDVRPAGFTQGGNTRDAVIRFPKDSGHNAVYVSVSDVLSPDQVKQRQDEENRRQQEWDATHPVEAAERNYERARAELNQANEDVARNQERQAKAVQVYNSRKSELDAANKTLADAIAEIKQFNRFAHDPMAGGHRMWQMAGLKAQRAQTDVNNKQAAFDAAAKEKSDADAALSAAQERRKQKENKEKDAKDKLDKESKRNKPGKATGKGKPVGDKWLDDAGKDSGAPIPDRIADKLRDKEFKSFDDFRKAVWEEVSKDPELSKNLNPSNKSSVSKGYSPFTPKNQQVGGRKVYELHHDKPISQGGEVYDMDNIRVTTPKRHIDIHRGK
- sensitivity of AIEC isolates in spot tests [2]: sensitive
- ability to kill AIEC in the biofilm state [1]: good killing activity
- antimicrobial activity against biofilm-associated cells compared with ampicillin, metronidazole and rifaximin [1]: superior antimicrobial activity
- relative effectiveness among colicins in killing AIEC in the biofilm state [1]: most effective
- killing of intracellular LF82 in infected macrophages [3]: able to kill intracellular LF82
- Kd [4]: 2 nM

B3: colicin E9 H575A: catalytically inactive colicin E9 variant (protein, UniProt P09883 1-582, looked up, variant H575A)
Colicin-E9: B2 chain with H575A
- killing of intracellular LF82 in infected macrophages [3]: no killing

B4: Colicin D (protein, listed as Escherichia coli)
chain: MSDYEGSGPTEGIDYGHSMVVWPSTGLISGGDVKPGGSSGIAPSMPPGWGDYSPQGIALVQSVLFPGIIRRIILDKELEEGDWSGWSVSVHSPWGNEKVSAARTVLENGLRGGLPEPSRPAAVSFARLEPASGNEQKIIRLMVTQQLEQVTDIPASQLPAAGNNVPVKYRLMDLMQNGTQYMAIIGGIPMTVPVVDAVPVPDRSRPGTNIKDVYSAPVSPNLPDLVLSVGQMNTPVLSNPEIQEEGVIAETGNYVEAGYTMSSNNHDVIVRFPEGSDVSPLYISTVEILDSNGLSQRQEAENKAKDDFRVKKEEAVARAEAEKAKAELFSKAGVNQPPVYTQEMMERANSVMNEQGALVLNNTASSVQLAMTGTGVWTAAGDIAGNISKFFSNALEKVTIPEVSPLLMRISLGALWFHSEEAGAGSDIVPGRNLEAMFSLSAQMLAGQGVVIEPGATSVNLPVRGQLINSNGQLALDLLKTGNESIPAAVPVLNAVRDTATGLDKITLPAVVGAPSRTILVNPVPQPSVPTDTGNHQPVPVTPVHTGTEVKSVEMPVTTITPVSDVGGLRDFIYWRPDAAGTGVEAVYVMLNDPLDSGRFSRKQLDKKYKHAGDFGISDTKKNRETLTKFRDAIEEHLSDKDTVEKGTYRREKGSKVYFNPNTMNVVIIKSNGEFLSGWKINPDADNGRIYLETGEL
- sensitivity of AIEC isolates in spot tests [2]: sensitive
- ability to kill AIEC in the biofilm state [1]: good killing activity

B5: Colicin E1 (protein, listed as Escherichia coli)
chain: METAVAYYKDGVPYDDKGQVIITLLNGTPDGSGSGGGGGKGGSKSESSAAIHATAKWSTAQLKKTQAEQAARAKAAAEAQAKAKANRDALTQRLKDIVNEALRHNASRTPSATELAHANNAAMQAEDERLRLAKAEEKARKEAEAAEKAFQEAEQRRKEIEREKAETERQLKLAEAEEKRLAALSEEAKAVEIAQKKLSAAQSEVVKMDGEIKTLNSRLSSSIHARDAEMKTLAGKRNELAQASAKYKELDELVKKLSPRANDPLQNRPFFEATRRRVGAGKIREEKQKQVTASETRINRINADITQIQKAISQVSNNRNAGIARVHEAEENLKKAQNNLLNSQIKDAVDATVSFYQTLTEKYGEKYSKMAQELADKSKGKKIGNVNEALAAFEKYKDVLNKKFSKADRDAIFNALASVKYDDWAKHLDQFAKYLKITGHVSFGYDVVSDILKIKDTGDWKPLFLTLEKKAADAGVSYVVALLFSLLAGTTLGIWGIAIVTGILCSYIDKNKLNTINEVLGI
- sensitivity of AIEC isolates in spot tests [2]: sensitive
- ability to kill AIEC in the biofilm state [1]: good killing activity
- antimicrobial activity against biofilm-associated cells compared with ampicillin, metronidazole and rifaximin [1]: superior antimicrobial activity
- relative effectiveness among colicins in killing AIEC in the biofilm state [1]: most effective
- reduction in the number of bacteria recovered from the macrophages ([3]; 10 μg/ml, 3 h, LF82-infected J774 macrophages): ~80%

B6: Colicin E3 (protein, listed as Escherichia coli)
chain: MSGGDGRGHNTGAHSTSGNINGGPTGLGVGGGASDGSGWSSENNPWGGGSGSGIHWGGGSGHGNGGGNGNSGGGSGTGGNLSAVAAPVAFGFPALSTPGAGGLAVSISAGALSAAIADIMAALKGPFKFGLWGVALYGVLPSQIAKDDPNMMSKIVTSLPADDITESPVSSLPLDKATVNVNVRVVDDVKDERQNISVVSGVPMSVPVVDAKPTERPGVFTASIPGAPVLNISVNNSTPAVQTLSPGVTNNTDKDVRPAGFTQGGNTRDAVIRFPKDSGHNAVYVSVSDVLSPDQVKQRQDEENRRQQEWDATHPVEAAERNYERARAELNQANEDVARNQERQAKAVQVYNSRKSELDAANKTLADAIAEIKQFNRFAHDPMAGGHRMWQMAGLKAQRAQTDVNNKQAAFDAAAKEKSDADAALSSAMESRKKKEDKKRSAENNLNDEKNKPRKGFKDYGHDYHPAPKTENIKGLGDLKPGIPKTPKQNGGGKRKRWTGDKGRKIYEWDSQHGELEGYRASDGQHLGSFDPKTGNQLKGPDPKRNIKKYL
- sensitivity of AIEC isolates in spot tests [2]: sensitive
- ability to kill AIEC in the biofilm state [1]: good killing activity
